Experimental data published in PMC11022072 (2024).

Assays:
Experiment in all cases: BLI
LbpB C-lobe = target: LbpB C-lobe
LbpB C-lobe ΔCaHD = target: LbpB C-lobe ΔCaHD
FL LbpB ΔCaHD = target: FL LbpB ΔCaHD

B1: bovine lactoferrin (Lf) (natural protein)
chain: APRKNVRWCTISQPEWFKCRRWQWRMKKLGAPSITCVRRAFALECIRAIAEKKADAVTLDGGMVFEAGRDPYKLRPVAAEIYGTKESPQTHYYAVAVVKKGSNFQLDQLQGRKSCHTGLGRSAGWIIPMGILRPYLSWTESLEPLQGAVAKFFSASCVPCIDRQAYPNLCQLCKGEGENQCACSSREPYFGYSGAFKCLQDGAGDVAFVKETTVFENLPEKADRDQYELLCLNNSRAPVDAFKECHLAQVPSHAVVARSVDGKEDLIWKLLSKAQEKFGKNKSRSFQLFGSPPGQRDLLFKDSALGFLRIPSKVDSALYLGSRYLTTLKNLRETAEEVKARYTRVVWCAVGPEEQKKCQQWSQQSGQNVTCATASTTDDCIVLVLKGEADALNLDGGYIYTAGKCGLVPVLAENRKSSKHSSLDCVLRPTEGYLAVAVVKKANEGLTWNSLKDKKSCHTAVDRTAGWNIPMGLIVNQTGSCAFDEFFSQSCAPGADPKSRLCALCAGDDQGLDKCVPNSKEKYYGYTGAFRCLAEDVGDVAFVKNDTVWENTNGESTADWAKNLNREDFRLLCLDGTRKPVTEAQSCHLAVAPNHAVVSRSDRAAHVKQVLLHQQALFGKNGKNCPDKFCLFKSETKNLLFNDNTECLAKLGGRPTYEEYLGTEYVTAIANLKKCSTSPLLEACAFLTR
Kd (LbpB C-lobe): 200 nM
Kd (LbpB C-lobe ΔCaHD): 2900 nM
Kd (FL LbpB ΔCaHD): 1280 nM
